Results on one molecule are retold here after US20100021935A1 (FIBROSTATIN SOCIEDAD LIMITADA, published 2010).

The assay addresses T1, recombinant 77-kDa GPBP expressed from pc-n4′ (human, UniProt Q9Y5P4 1-624).
T1 construct: untagged, transient expression in HEK 293 cells; also called 77-kDa GPBP isoform
T1 sequence: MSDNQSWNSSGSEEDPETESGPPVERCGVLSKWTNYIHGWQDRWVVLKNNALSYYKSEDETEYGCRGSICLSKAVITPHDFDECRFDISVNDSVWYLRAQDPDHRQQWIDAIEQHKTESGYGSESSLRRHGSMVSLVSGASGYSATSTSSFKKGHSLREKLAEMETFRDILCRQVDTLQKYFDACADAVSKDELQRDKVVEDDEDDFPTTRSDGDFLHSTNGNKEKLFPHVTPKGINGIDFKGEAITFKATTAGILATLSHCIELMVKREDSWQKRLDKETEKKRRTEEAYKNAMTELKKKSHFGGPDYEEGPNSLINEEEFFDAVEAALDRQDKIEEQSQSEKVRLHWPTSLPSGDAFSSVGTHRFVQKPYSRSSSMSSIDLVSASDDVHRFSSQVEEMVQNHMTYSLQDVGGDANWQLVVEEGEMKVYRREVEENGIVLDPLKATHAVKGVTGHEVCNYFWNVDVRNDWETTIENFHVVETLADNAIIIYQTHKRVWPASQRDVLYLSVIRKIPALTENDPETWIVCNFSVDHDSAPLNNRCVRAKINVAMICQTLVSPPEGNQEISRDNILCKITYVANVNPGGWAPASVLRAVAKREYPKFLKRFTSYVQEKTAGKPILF
As to the kind of experiment: ex vivo cross-linking and FLAG immunoprecipitation. The protocol:
Cells were grown up to 70-90% of confluence in either 150-mm plates (native GPBP) or six-well plates (recombinant GPBP). Cross-linking was performed 48 h after transfection or when cells reached the indicated confluence. Briefly, cells were brought to RT by rinsing with PBS and incubated for 10 min with culture medium containing 1% formaldehyde. The cross-link reaction was quenched with 125 mM Gly-HCl in PBS (pH 7.4) for 10 min at RT. Cells were brought to 4° C. by rinsing with ice-chilled PBS and procedure continued at 4° C. Cells were lysed with 1 or 5 ml (six-well or 150-mm plate) of extraction buffer [16 mM Tris-HCl pH 7.5, 160 mM NaCl, 2 mM ethylenediaminetetraacetic acid (EDTA), 1. […] Eluted samples were boiled with electrophoresis sample buffer (2×) for 15 min to reverse cross-linking and further analyzed by SDS-PAGE and either Coomassie blue staining or Western blot.
This was further assessed by ex vivo cross-linking and FLAG-immunoprecipitation of cells expressing or not expressing BM40-FLAG-α3(IV)NC1, a recombinant exportable form of the human α3(IV)NC1 (16), followed by SDS-PAGE analysis of immunoprecipitates (FIG. 4A). […] To further determine that GPBP indeed interacted with FLAG-α3(IV) in the ER, cells expressing or not expressing BM40-FLAG-α3(IV)NC1 were transfected with pc-n4′ and similarly analyzed (FIG. 4B).

B1: FLAG-α3(IV)NC1, recombinant exportable human α3(IV)NC1 domain (BM40-FLAG-α3(IV)NC1) (other, not shown: small tags and cut ends)
chain: GLKGKRGDSGSPATWTTRGFVFTRHSQTTAIPSCPEGTVPLYSGFSFLFVQGNQRAHGQDLGTLGSCLQRFTTMPFLFCNVNDVCNFASRNDYSYWLSTPALMPMNMAPITGRALEPYISRCTVCEGPAIAIAVHSQTTDIPPCPHGWISLWKGFSFIMFTSAGSEGTGQALASPGSCLEEFRASPFLECHGRGTCNYYSNSYSFWLASLNPERMFRKPIPSTVKAGELEKIISRCQVCMKKRH
notes: expressed in HEK 293-FLAG-α3(IV) cells; also called type IV collagen
Consider B1, for which the binding result is “binds”.
